# Test results from patent publication US9958461B2, “Detection of protein to protein interactions” (THE GOVERNING COUNCIL OF THE UNIVERSITY OF TORONTO, priority 2013, dated 2018).
# Columns and labels:
# EGFR-L858R = target: T1, EGFR-L858R (Homo sapiens, UniProt P00533, L858R); assay: MaMTH EGFR-interactor screen, lentiviral preys against EGFR-L858R bait (interaction score); assay type: cell-based; settings: MaMTH interaction score of prey with EGFR-L858R bait
# T1 construct: with the advantage of testing full-length integral membrane proteins; (GGGGS)2 linker-Cub (human ubiquitin aa 35-76)-GAL4(1-147)-mNFkB(364-550) (C); expressed in transfected cells
# Summary of the method: (§1)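 Interaction score is the luciferase fold-change versus averaged negative controls (Fabp5, Pex19, Pex7, GABBR2), with >1 called interacting. Luciferase was measured 24 h after triplicate bait transfection. This followed single-copy prey transduction (MOI ~0.3-0.4) of GAL4UAS-luciferase HEK293T cells and ≥48 h puromycin selection.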
# EGFR-Wt [1] = assay: MaMTH EGFR-interactor screen, lentiviral preys against EGFR-wildtype bait (interaction score); assay type: cell-based, human; settings: ratio of EGFR-Wt mean to EGFR-L858R mean interaction score
# Summary of the method: as §1
# EGFR-Wt [2] = target: T2, EGFR-Wt (Homo sapiens, UniProt P00533); assay: as above; assay type: cell-based; settings: MaMTH interaction score of prey with EGFR-Wt bait, mean
# T2 construct: with the advantage of testing full-length integral membrane proteins; (GGGGS)2 linker-Cub (human ubiquitin aa 35-76)-GAL4(1-147)-mNFkB(364-550) (C); expressed in transfected cells
# Summary of the method: as §1
Molecule,EGFR-L858R mean (EGFR-L858R),Wt/L858R (EGFR-Wt [1]),EGFR-Wt mean (EGFR-Wt [2])
"ANKS1A (protein, UniProt Q92625 2-1134, looked up) Ankyrin repeat and SAM …: GKEQELLEAARTGHLPAVEKLLSGKRLSSGFGGGGGGGSGGGGGGSGGGGGGLGSSSHPLSSLLSMWRGPNVNCVDSTGYTPLHHAALNGHKDVVEVLLRNDALTNVADSKGCYPLHLAAWKGDAQIVRLLIHQGPSHTRVNEQNNDNETALHCAAQYGHTEVVKVLLEELTDPTMRNNKFETPLDLAALYGRLEVVKMLLNAHPNLLSCNTKKHTPLHLAARNGHKAVVQVLLDAGMDSNYQTEMGSALHEAALFGKTDVVQILLAAGTDVNIKDNHGLTALDTVRELPSQKSQQIAALIEDHMTGKRSTKEVDKTPPPQPPLISSMDSISQKSQGDVEKAVTELIIDFDANAEEEGPYEALYNAISCHSLDSMASGRSSDQDSTNKEAEAAGVKPAGVRPRERPPPPAKPPPDEEEEDHIDKKYFPLTASEVLSMRPRIHGSAAREEDEHPYELLLTAETKKVVLVDGKTKDHRRSSSSRSQDSAEGQDGQVPEQFSGLLHGSSPVCEVGQDPFQLLCTAGQSHPDGSPQQGACHKASMQLEETGVHAPGASQPSALDQSKRVGYLTGLPTTNSRSHPETLTHTASPHPGGAEEGDRSGARSRAPPTSKPKAELKLSRSLSKSDSDLLTCSPTEDATMGSRSESLSNCSIGKKRLEKSPSFASEWDEIEKIMSSIGEGIDFSQERQKISGLRTLEQSVGEWLESIGLQQYESKLLLNGFDDVHFLGSNVMEEQDLRDIGISDPQHRRKLLQAARSLPKVKALGYDGNSPPSVPSWLDSLGLQDYVHSFLSSGYSSIDTVKNLWELELVNVLKVQLLGHRKRIIASLADRPYEEPPQKPPRFSQLRCQDLLSQTSSPLSQNDSCTGRSADLLLPPGDTGRRRHDSLHDPAAPSRAERFRIQEEHREAKLTLRPPSLAAPYAPVQSWQHQPEKLIFESCGYEANYLGSMLIKDLRGTESTQDACAKMRKSTEHMKKIPTIILSITYKGVKFIDASNKNVIAEHEIRNISCAAQDPEDLCTFAYITKDLQTSHHYCHVFSTVDVNLTYEIILTLGQAFEVAYQLALQAQKSRATGASAAEMIETKSSKPVPKPRVGVRKSALEPPDMDQDAQSHASVSWVVDPKPDSKRSLSTN",11.76,0.79,9.27
"SOS2 (protein, UniProt Q07890 1-1332, looked up) Son of sevenless homolog 2: MQQAPQPYEFFSEENSPKWRGLLVSALRKVQEQVHPTLSANEESLYYIEELIFQLLNKLCMAQPRTVQDVEERVQKTFPHPIDKWAIADAQSAIEKRKRRNPLLLPVDKIHPSLKEVLGYKVDYHVSLYIVAVLEYISADILKLAGNYVFNIRHYEISQQDIKVSMCADKVLMDMFDQDDIGLVSLCEDEPSSSGELNYYDLVRTEIAEERQYLRELNMIIKVFREAFLSDRKLFKPSDIEKIFSNISDIHELTVKLLGLIEDTVEMTDESSPHPLAGSCFEDLAEEQAFDPYETLSQDILSPEFHEHFNKLMARPAVALHFQSIADGFKEAVRYVLPRLMLVPVYHCWHYFELLKQLKACSEEQEDRECLNQAITALMNLQGSMDRIYKQYSPRRRPGDPVCPFYSHQLRSKHLAIKKMNEIQKNIDGWEGKDIGQCCNEFIMEGPLTRIGAKHERHIFLFDGLMISCKPNHGQTRLPGYSSAEYRLKEKFVMRKIQICDKEDTCEHKHAFELVSKDENSIIFAAKSAEEKNNWMAALISLHYRSTLDRMLDSVLLKEENEQPLRLPSPEVYRFVVKDSEENIVFEDNLQSRSGIPIIKGGTVVKLIERLTYHMYADPNFVRTFLTTYRSFCKPQELLSLLIERFEIPEPEPTDADKLAIEKGEQPISADLKRFRKEYVQPVQLRILNVFRHWVEHHFYDFERDLELLERLESFISSVRGKAMKKWVESIAKIIRRKKQAQANGVSHNITFESPPPPIEWHISKPGQFETFDLMTLHPIEIARQLTLLESDLYRKVQPSELVGSVWTKEDKEINSPNLLKMIRHTTNLTLWFEKCIVEAENFEERVAVLSRIIEILQVFQDLNNFNGVLEIVSAVNSVSVYRLDHTFEALQERKRKILDEAVELSQDHFKKYLVKLKSINPPCVPFFGIYLTNILKTEEGNNDFLKKKGKDLINFSKRRKVAEITGEIQQYQNQPYCLRIEPDMRRFFENLNPMGSASEKEFTDYLFNKSLEIEPRNCKQPPRFPRKSTFSLKSPGIRPNTGRHGSTSGTLRGHPTPLEREPCKISFSRIAETELESTVSAPTSPNTPSTPPVSASSDLSVFLDVDLNSSCGSNSIFAPVLLPHSKSFFSSCGSLHKLSEEPLIPPPLPPRKKFDHDASNSKGNMKSDDDPPAIPPRQPPPPKVKPRVPVPTGAFDGPLHSPPPPPPRDPLPDTPPPVPLRPPEHFINCPFNLQPPPLGHLHRDSDWLRDISTCPNSPSTPPSTPSPRVPRRCYVLSSSQNNLAHPPAPPVPPRQNSSPHLPKLPPKTYKRELSHPPLYRLPLLENAETPQ",1.83,0.15,0.28
"SH2D3C (protein, UniProt Q8N5H7 1-860, looked up) SH2 domain-containing protein …: MTEGTKKTSKKFKFFKFKGFGSLSNLPRSFTLRRSSASISRQSHLEPDTFEATQDDMVTVPKSPPAYARSSDMYSHMGTMPRPSIKKAQNSQAARQAQEAGPKPNLVPGGVPDPPGLEAAKEVMVKATGPLEDTPAMEPNPSAVEVDPIRKPEVPTGDVEEERPPRDVHSERAAGEPEAGSDYVKFSKEKYILDSSPEKLHKELEEELKLSSTDLRSHAWYHGRIPREVSETLVQRNGDFLIRDSLTSLGDYVLTCRWRNQALHFKINKVVVKAGESYTHIQYLFEQESFDHVPALVRYHVGSRKAVSEQSGAIIYCPVNRTFPLRYLEASYGLGQGSSKPASPVSPSGPKGSHMKRRSVTMTDGLTADKVTRSDGCPTSTSLPRPRDSIRSCALSMDQIPDLHSPMSPISESPSSPAYSTVTRVHAAPAAPSATALPASPVARRSSEPQLCPGSAPKTHGESDKGPHTSPSHTLGKASPSPSLSSYSDPDSGHYCQLQPPVRGSREWAATETSSQQARSYGERLKELSENGAPEGDWGKTFTVPIVEVTSSFNPATFQSLLIPRDNRPLEVGLLRKVKELLAEVDARTLARHVTKVDCLVARILGVTKEMQTLMGVRWGMELLTLPHGRQLRLDLLERFHTMSIMLAVDILGCTGSAEERAALLHKTIQLAAELRGTMGNMFSFAAVMGALDMAQISRLEQTWVTLRQRHTEGAILYEKKLKPFLKSLNEGKEGPPLSNTTFPHVLPLITLLECDSAPPEGPEPWGSTEHGVEVVLAHLEAARTVAHHGGLYHTNAEVKLQGFQARPELLEVFSTEFQMRLLWGSQGASSSQARRYEKFDKVLTALSHKLEPAVRSSEL",2.92,0.80,2.33
"CTNND1 (protein, UniProt O60716 1-968, looked up) Catenin delta-1: MDDSEVESTASILASVKEQEAQFEKLTRALEEERRHVSAQLERVRVSPQDANPLMANGTLTRRHQNGRFVGDADLERQKFSDLKLNGPQDHSHLLYSTIPRMQEPGQIVETYTEEDPEGAMSVVSVETSDDGTTRRTETTVKKVVKTVTTRTVQPVAMGPDGLPVDASSVSNNYIQTLGRDFRKNGNGGPGPYVGQAGTATLPRNFHYPPDGYSRHYEDGYPGGSDNYGSLSRVTRIEERYRPSMEGYRAPSRQDVYGPQPQVRVGGSSVDLHRFHPEPYGLEDDQRSMGYDDLDYGMMSDYGTARRTGTPSDPRRRLRSYEDMIGEEVPSDQYYWAPLAQHERGSLASLDSLRKGGPPPPNWRQPELPEVIAMLGFRLDAVKSNAAAYLQHLCYRNDKVKTDVRKLKGIPVLVGLLDHPKKEVHLGACGALKNISFGRDQDNKIAIKNCDGVPALVRLLRKARDMDLTEVITGTLWNLSSHDSIKMEIVDHALHALTDEVIIPHSGWEREPNEDCKPRHIEWESVLTNTAGCLRNVSSERSEARRKLRECDGLVDALIFIVQAEIGQKDSDSKLVENCVCLLRNLSYQVHREIPQAERYQEAAPNVANNTGPHAASCFGAKKGKDEWFSRGKKPIEDPANDTVDFPKRTSPARGYELLFQPEVVRIYISLLKESKTPAILEASAGAIQNLCAGRWTYGRYIRSALRQEKALSAIADLLTNEHERVVKAASGALRNLAVDARNKELIGKHAIPNLVKNLPGGQQNSSWNFSEDTVISILNTINEVIAENLEAAKKLRETQGIEKLVLINKSGNRSEKEVRAAALVLQTIWGYKELRKPLEKEGWKKSDFQVNLNNASRSQSSHSYDDSTLPLIDRNQKSDKKPDREEIQMSNMGSNTKSLDNNYSTPNERGDHNRTLDRSGDLGDMEPLKGTTPLMQDEGQESLEEELDVLVLDDEGGQVSYPSMQKI",3.63,0.83,3.00
